According to patent US12281161B2, “Polypeptides and uses thereof” (TRUSTEES OF BOSTON UNIVERSITY, priority 2021, dated 2025):
Like-named read-outs stand apart in the source and are kept apart here. Primed or numbered codes have the meaning given here. Where no end group is shown, it is not given here. [ ]: non-standard residue; d: D form. DBCO‑MMAE = DBCO-PEG3-glutamic acid-valine-citrulline-p-aminobenzylcarbamate-MMAE (DBCO-PEG3-EVC-PABC-MMAE); Lys(N3)′ = its azide, alkyne or alkene has reacted where a group follows in round brackets

Assays:
[1] = system: NCI-H358; assay: in vitro cytotoxicity (MTT); format: cell-based, human
Procedure: (§1) We utilized two different incubation methods.
(§2) We then incubated the human cell lines with ADC, and equivalent concentrations of MMAE and native Ab for both 48 hours and 72 hours, the results of which can be seen in FIG. 13A-13E. We expected the results to correlate with the GPR87 expression we observed by flow cytometry. For the normal cell lines, this was the case. As detailed in FIG. 14, the line that was most sensitive to the ADC were the NHLFs, followed by the BEAS-2Bs, and the line with the lowest GPR87 expression, the HUVECs, had the highest IC50 after 72 hours. However, both the NSCLC cell lines had relatively high IC50s given the GPR87 expression status of these lines.
(§3) In comparison, NCI-H358 and NCI-H520 see approximately a 4-fold or 2-fold decrease in IC50, respectively, between the two time points. On the other hand, the NCI-H520 line has almost a 10-fold increase in MMAE IC50 at 72 hours compared to 48 hours. The results are likely because the cell lines are different sizes and morphologies and therefore are at different confluencies when plated at the same number of cells per well and are therefore likely to be in different parts of their log growth phase during treatment. For example, the NSCLC lines are typically at very low confluency at a plating density of 5,000 cells per well and may not reach log phase growth until later in the assay. As MMAE affects actively dividing cells, this will affect the results of the assay. While 72 hours was not the optimized end time point for all five cell lines, in order to have a standardized cell plating density, and therefore same ADC:cell ratio, going past 72 hours for some of the cell lines would lead to confluency or death in untreated control cells, which would also confound results. Thus, we incubated the two NSCLC lines for longer periods of time to allow the control cells to become more confluent by the assay endpoint, and to see how this would affect the ADC IC50.
(§4) Standard cytotoxicity assays, like the MTT assays ran here, measure or rather, approximate the cell number at an end point and compare to control untreated cells. Effectively what is measured is a comparison between growth rates. When comparing the efficacy of a drug, particularly a mitotic inhibitor, among different cell lines, division rate differences due to biology, media additives, or seeding density can have a dramatic effect on the IC50, an issue brought up by Hafner et al. They reported with both modeling and in vitro assays how using the IC50 as a metric can actually mask the true mechanism of a drug, for example the microtubule inhibitor paclitaxel. […] GR values indicate whether a drug inhibits growth (0<GR<1), is cytostatic (GR=0) or cytotoxic (GR<0). To calculate this parameter, one needs cell count data for at least two different time points and compares experimental growth rates to the growth rate of control cells. […] Consequently, we reviewed the data at our two time points to perform a similar analysis. We plated at the same seeding density for both the 48 and 72 hour time points. As MTT is an endpoint assay rather than a kinetic assay like MTS, we can use MTT signal as a proxy for cell count. […] Therefore, we excluded this cell line from our analysis. We are technically assessing the effect the ADC or equivalent MMAE has on the growth rate of cells at 60 hours, as we are measuring at t=x±delta t, with x being 60 and delta t being 12 hours. Ideally, we would assess an earlier time point or even multiple time points. […] (FIGS. 19A-19D). Conversely, both NCI-H520 and NCI-H358 are cytotoxic (GR<0) at higher concentrations of ADC at this time point. […] While the GR50 data is still not in agreement with GPR87 expression, it does indicate that this type of analysis at other, earlier, time points is useful in assessing the dynamics of ADC and MMAE cytotoxicity in these cell lines.

[2] = target: GPR87 antigen (Homo sapiens, UniProt Q9BY21); assay: custom ELISA binding analysis of αGPR87 antibody, Ab-CCK and ADC
GPR87 antigen, sequence (Q9BY21 whole entry): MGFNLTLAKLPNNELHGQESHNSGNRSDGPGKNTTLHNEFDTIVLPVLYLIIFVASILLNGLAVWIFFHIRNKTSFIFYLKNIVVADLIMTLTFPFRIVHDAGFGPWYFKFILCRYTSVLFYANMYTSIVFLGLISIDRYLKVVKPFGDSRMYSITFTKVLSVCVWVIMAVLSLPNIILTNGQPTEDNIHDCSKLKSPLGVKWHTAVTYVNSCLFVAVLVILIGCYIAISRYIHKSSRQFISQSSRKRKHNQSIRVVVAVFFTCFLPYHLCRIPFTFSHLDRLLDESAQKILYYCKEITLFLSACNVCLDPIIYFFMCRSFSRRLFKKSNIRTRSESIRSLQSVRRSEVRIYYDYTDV
Procedure: With the CCE-MMAE peptide successfully synthesized and previous optimization of the antibody loading process with the AFC, it was facile to translate the method to formulating the ADC. Using a similar custom ELISA as before, but with a secondary antibody recognizing mouse antibody, it was contemplated whether the loading of CCE-MMAE, the 50° C. incubation, or even the expression of the peptide tails affected the binding affinity of the antibody. (FIG. 8C) What was found was initially surprising, which was that by adding the peptide tails onto the antibody, the Kd was affected. […] However, if it was taken into consideration the SEC data showing the larger aggregates formed by these antibodies, the results are more consistent. The original analysis was done by using the wt/vol concentration of the antibodies. However, if there are larger aggregates forming such as hexamers of Ab-CCK or hexamers, trimers, and monomers of the ADC, then equivalent wt/vol concentrations will vary by molarity. If it was assumed the Ab-CCK exists as a hexamer and therefore at the same wt/vol concentration as the native Ab is at one sixth the molar concentration, the binding data can be reanalyzed with these adjusted molarities. Similarly, it can be assumed the ADC is forming on average trimers and adjust the molar concentration by one third accordingly. The resulting curves are similar, with the Ab, Ab-CCK, and ADC having Kds of approximately 0.43, 0.46, and 0.41 nM, respectively.

[3] = system: NCI-H520; assay: in vitro cytotoxicity (MTT); format: cell-based, human
Procedure: as §1, §2, §3, §4

[4] = system: NCI-H358, NCI-H520, NHLF, BEAS-2B, HUVEC; assay: in vitro cytotoxicity, comparison of ADC and MMAE over the five cell lines; format: cell-based, human; settings: 48 and 72 hours
Procedure: as §2
We investigated analyzing other parameters, such as the area under the curve (AUC) for the five cell lines as we noted that the hill slope was variable between different cell lines and between ADC and MMAE treatments. By assessing the AUC, we could interpret the total cytotoxicity of the treatment over all concentrations tested. Rather than the large (>100) fold differences in ADC and MMAE IC50s observed in FIG. 14, FIG. 16 indicates the difference in toxicity between the two are less pronounced, on the order of 1-3-fold difference. However, comparing the toxicity of the ADC across the cell lines, the relationships, or lack thereof, between toxicity and GPR87 expression remain largely the same.

[5] = system: NHLF; assay: in vitro cytotoxicity (MTT); format: cell-based, human
Procedure: as §1, §2, §4

[6] = system: BEAS-2B; assay: in vitro cytotoxicity (MTT); format: cell-based, human
Procedure: as §1, §2, §4

[7] = system: NIH-3T3; assay: in vitro cytotoxicity, negative control line; settings: NIH-3T3, 10 μg/ml ADC, 72 hours
Procedure: We incubated NIH-3T3s with up to 10 μg/ml of ADC (67 nM, equivalent to 96 ng/ml of MMAE) along with the native antibody and MMAE alone at equivalent concentrations.

[8] = Ab-CCK assumed hexamer, ADC assumed trimer (from SEC), read-out: Kd, reanalyzed with adjusted molarities
[9] = ELISA, analysed by wt/vol concentration, read-out: Kd

For “CCE-MMAE: CCE peptide (SEQ ID NO: 3) conjugated at azido lysine with DBCO-MMAE (MKLEEIVSELEEIVSELEEIV[Lys(N3)′](DBCO‑MMAE)ELEEIVYEVGER)”, the toxicity ([1]; NCI-H358, 72 hours, concentrations equivalent to ADC) was “Toxicity was only observed at the highest concentration”.

B1: Ab: native murine αhGPR87 IgG1 antibody (331CL), plasmids from Creative Biolabs (antibody)
heavy: EVQLQQSGPDLVKPGASMKISCKASGYSFTDYTMHWVKQSHGKNFEWIGLINPYNDGTTYNQKFKGKATLTVDKSSSTAYMELLSLTSEDSAVYYCASLDYWGQGTSVTVSSAKTTPPSVYPLAPGSAAQTNSMVTLGCLVKGYFPEPVTVTWNSGSLSSGVHTFPAVLQSDLYTLSSSVTVPSSTWPSETVTCNVAHPASSTKVDKKIVPRDCGCKPCICTVPEVSSVFIFPPKPKDVLTITLTPKVTCVVVDISKDDPEVQFSWFVDDVEVHTAQTQPREEQFNSTFRSVSELPIMHQDWLNGKEFKCRVNSAAFPAPIEKTISKTKGRPKAPQVYTIPPPKEQMAKDKVSLTCMITDFFPEDITVEWQWNGQPAENYKNTQPIMDTDGSYFVYSKLNVQKSNWEAGNTFTCSVLHEGLHNHHTEKSLSHSPGK
light: DVVMTQTPLSLPVSLGDQASISCRSSQSLVHSSGNTYLHWYLQKPGQSPKLLIYKVSNRFSGVPDRFSGSGSGTDFTLKISRVEAEDLGVYFCSQSTHVPYTFGGGTKLEIKRADAAPTVSIFPPSSEQLTSGGASVVCFLNNFYPKDINVKWKIDGSERQNGVLNSWTDQDSKDSTYSMSSTLTLTKDEYERHNSYTCEATHKTSTSPIVKSFNRNEC
B1 gave a Kd [2, 8] of ~0.43 nM and a Kd [2, 9] of 0.4 nM.

B2: ADC (conjugate)
heavy: EVQLQQSGPDLVKPGASMKISCKASGYSFTDYTMHWVKQSHGKNFEWIGLINPYNDGTTYNQKFKGKATLTVDKSSSTAYMELLSLTSEDSAVYYCASLDYWGQGTSVTVSSAKTTPPSVYPLAPGSAAQTNSMVTLGCLVKGYFPEPVTVTWNSGSLSSGVHTFPAVLQSDLYTLSSSVTVPSSTWPSETVTCNVAHPASSTKVDKKIVPRDCGCKPCICTVPEVSSVFIFPPKPKDVLTITLTPKVTCVVVDISKDDPEVQFSWFVDDVEVHTAQTQPREEQFNSTFRSVSELPIMHQDWLNGKEFKCRVNSAAFPAPIEKTISKTKGRPKAPQVYTIPPPKEQMAKDKVSLTCMITDFFPEDITVEWQWNGQPAENYKNTQPIMDTDGSYFVYSKLNVQKSNWEAGNTFTCSVLHEGLHNHHTEKSLSHSPGKGGGGGMKLKKIKSVLKKIKSVLKKIKSVLKKIKSVVGER
light: DVVMTQTPLSLPVSLGDQASISCRSSQSLVHSSGNTYLHWYLQKPGQSPKLLIYKVSNRFSGVPDRFSGSGSGTDFTLKISRVEAEDLGVYFCSQSTHVPYTFGGGTKLEIKRADAAPTVSIFPPSSEQLTSGGASVVCFLNNFYPKDINVKWKIDGSERQNGVLNSWTDQDSKDSTYSMSSTLTLTKDEYERHNSYTCEATHKTSTSPIVKSFNRNEC
peptide: MKLEEIVSELEEIVSELEEIVKELEEIVYEVGER
B2 was tested, and the “decrease in IC50 between 48 and 72 hours” value ([3]; NCI-H520) was ~2 fold, the IC50 ([3]; NCI-H520, ADC prepared at 50° C.) was 3 nM and the IC50 ([3]; NCI-H520, ADC prepared at RT) was 4.9 nM. The “normalized growth rate inhibition (GR)” value ([3]; NCI-H520, higher concentrations of ADC, 60 hours) was < 0, the “IC50, start of time course” value ([3]; NCI-H520, incubation 48, 72 and 168 hours, first value of 'from ... to') was 12.87 ng/ml of MMAE equivalent ADC and the “IC50, end of time course” value ([3]; NCI-H520, longer incubation (up to 168 hours), last value of 'from ... to') was 5.24 ng/ml of MMAE equivalent ADC. The “decrease in IC50 between 48 and 72 hours” value ([1]; NCI-H358) was ~4 fold, the “toxicity, 24 hours treatment + 48 hours fresh media vs 72 hours treatment” value ([1]; NCI-H358) was “no significant difference between the two treatment groups” and the “normalized growth rate inhibition (GR)” value ([1]; NCI-H358, higher concentrations of ADC, 60 hours) was < 0. For the same molecule, the “IC50, start of time course” value ([1]; NCI-H358, incubation 48, 72 and 120 hours, first value of 'from ... to') was 9.11 ng/ml of MMAE equivalent ADC, the “IC50, end of time course” value ([1]; NCI-H358, longer incubation (up to 120 hours), last value of 'from ... to') was 8.69 ng/ml of MMAE equivalent ADC and the Kd [2, 8] was ~0.41 nM. The Kd [2, 9] was ~1.3 nM, the “fold differences in ADC and MMAE IC50s” value ([4]; FIG. 14) was > 100 fold and the “fold difference in toxicity (AUC) between ADC and MMAE” value ([4]; FIG. 16) was 1-3 fold. For the same molecule, the GR50 [5] was “do not reach that value”, the “difference between 48 and 72 hour IC50s” value [5] was “almost identical” and the IC50 ([5]; ADC prepared at 50° C.) was 0.8 nM. The IC50 ([5]; ADC prepared at RT) was 0.8 nM, the IC50 ([6]; ADC prepared at 50° C.) was 6.8 nM and the IC50 ([6]; ADC prepared at RT) was 5.3 nM. The GR-based effect ([6]; at 60 hours) was “cytotoxic” and the viability [7] was ~76%.

B3: Ab-CCK: αGPR87 antibody 331CL with CCK peptide on the heavy chain C termini via a pentaglycine linker (antibody)
heavy: EVQLQQSGPDLVKPGASMKISCKASGYSFTDYTMHWVKQSHGKNFEWIGLINPYNDGTTYNQKFKGKATLTVDKSSSTAYMELLSLTSEDSAVYYCASLDYWGQGTSVTVSSAKTTPPSVYPLAPGSAAQTNSMVTLGCLVKGYFPEPVTVTWNSGSLSSGVHTFPAVLQSDLYTLSSSVTVPSSTWPSETVTCNVAHPASSTKVDKKIVPRDCGCKPCICTVPEVSSVFIFPPKPKDVLTITLTPKVTCVVVDISKDDPEVQFSWFVDDVEVHTAQTQPREEQFNSTFRSVSELPIMHQDWLNGKEFKCRVNSAAFPAPIEKTISKTKGRPKAPQVYTIPPPKEQMAKDKVSLTCMITDFFPEDITVEWQWNGQPAENYKNTQPIMDTDGSYFVYSKLNVQKSNWEAGNTFTCSVLHEGLHNHHTEKSLSHSPGKGGGGGMKLKKIKSVLKKIKSVLKKIKSVLKKIKSVVGER
light: DVVMTQTPLSLPVSLGDQASISCRSSQSLVHSSGNTYLHWYLQKPGQSPKLLIYKVSNRFSGVPDRFSGSGSGTDFTLKISRVEAEDLGVYFCSQSTHVPYTFGGGTKLEIKRADAAPTVSIFPPSSEQLTSGGASVVCFLNNFYPKDINVKWKIDGSERQNGVLNSWTDQDSKDSTYSMSSTLTLTKDEYERHNSYTCEATHKTSTSPIVKSFNRNEC
B3 gave a Kd [2, 8] of ~0.46 nM and a Kd [2, 9] of 2.8 nM.
